The target in data set [1] is T1, M3+TE (module 3 of DEBS with its own N-terminal linker, fused to thioesterase), Q03132.
T1 chain: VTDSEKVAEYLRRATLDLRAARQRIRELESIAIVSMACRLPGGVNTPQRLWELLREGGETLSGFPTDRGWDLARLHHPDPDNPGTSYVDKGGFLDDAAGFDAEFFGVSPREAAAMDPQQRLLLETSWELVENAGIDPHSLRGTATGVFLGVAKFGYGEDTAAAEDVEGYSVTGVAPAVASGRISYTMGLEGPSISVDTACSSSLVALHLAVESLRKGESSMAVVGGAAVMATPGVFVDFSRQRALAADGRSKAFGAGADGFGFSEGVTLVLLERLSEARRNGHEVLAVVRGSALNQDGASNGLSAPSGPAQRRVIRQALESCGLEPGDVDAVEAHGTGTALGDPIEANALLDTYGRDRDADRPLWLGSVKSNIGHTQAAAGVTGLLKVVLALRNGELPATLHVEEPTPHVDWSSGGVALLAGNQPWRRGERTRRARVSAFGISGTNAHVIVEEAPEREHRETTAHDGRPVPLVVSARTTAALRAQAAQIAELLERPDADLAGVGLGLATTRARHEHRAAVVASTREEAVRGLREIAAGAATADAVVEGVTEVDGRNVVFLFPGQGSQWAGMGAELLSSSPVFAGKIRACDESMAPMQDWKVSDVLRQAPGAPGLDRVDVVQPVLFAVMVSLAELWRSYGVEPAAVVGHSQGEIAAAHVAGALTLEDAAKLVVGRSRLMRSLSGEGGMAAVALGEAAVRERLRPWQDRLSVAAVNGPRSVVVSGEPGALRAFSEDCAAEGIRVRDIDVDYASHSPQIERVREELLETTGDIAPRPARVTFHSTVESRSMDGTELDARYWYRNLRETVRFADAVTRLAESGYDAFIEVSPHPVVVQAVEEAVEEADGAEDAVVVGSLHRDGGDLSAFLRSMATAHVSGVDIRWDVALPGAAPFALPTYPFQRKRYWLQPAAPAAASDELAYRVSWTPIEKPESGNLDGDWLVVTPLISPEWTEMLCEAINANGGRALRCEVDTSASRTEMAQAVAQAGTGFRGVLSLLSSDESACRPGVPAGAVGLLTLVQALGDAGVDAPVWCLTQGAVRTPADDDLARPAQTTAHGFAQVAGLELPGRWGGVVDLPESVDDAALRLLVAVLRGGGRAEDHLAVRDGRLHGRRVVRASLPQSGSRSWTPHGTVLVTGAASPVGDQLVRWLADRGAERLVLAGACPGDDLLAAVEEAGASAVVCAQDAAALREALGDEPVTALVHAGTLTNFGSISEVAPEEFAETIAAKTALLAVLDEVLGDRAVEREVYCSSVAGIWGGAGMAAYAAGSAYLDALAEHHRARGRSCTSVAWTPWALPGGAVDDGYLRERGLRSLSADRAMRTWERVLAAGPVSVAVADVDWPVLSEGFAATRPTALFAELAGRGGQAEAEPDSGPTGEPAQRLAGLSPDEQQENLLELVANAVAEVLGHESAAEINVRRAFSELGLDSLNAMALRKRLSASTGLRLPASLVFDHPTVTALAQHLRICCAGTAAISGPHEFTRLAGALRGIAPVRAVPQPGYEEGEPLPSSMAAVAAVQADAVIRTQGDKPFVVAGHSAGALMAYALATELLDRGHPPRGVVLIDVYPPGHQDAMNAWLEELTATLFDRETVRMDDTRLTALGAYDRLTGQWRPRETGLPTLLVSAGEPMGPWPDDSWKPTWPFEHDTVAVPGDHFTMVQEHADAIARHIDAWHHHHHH

In data set [2] the target is T2, (5)M3+TE (module 3 of DEBS with the N-terminal linker of module 5, fused to thioesterase), Q03132.
T2 chain: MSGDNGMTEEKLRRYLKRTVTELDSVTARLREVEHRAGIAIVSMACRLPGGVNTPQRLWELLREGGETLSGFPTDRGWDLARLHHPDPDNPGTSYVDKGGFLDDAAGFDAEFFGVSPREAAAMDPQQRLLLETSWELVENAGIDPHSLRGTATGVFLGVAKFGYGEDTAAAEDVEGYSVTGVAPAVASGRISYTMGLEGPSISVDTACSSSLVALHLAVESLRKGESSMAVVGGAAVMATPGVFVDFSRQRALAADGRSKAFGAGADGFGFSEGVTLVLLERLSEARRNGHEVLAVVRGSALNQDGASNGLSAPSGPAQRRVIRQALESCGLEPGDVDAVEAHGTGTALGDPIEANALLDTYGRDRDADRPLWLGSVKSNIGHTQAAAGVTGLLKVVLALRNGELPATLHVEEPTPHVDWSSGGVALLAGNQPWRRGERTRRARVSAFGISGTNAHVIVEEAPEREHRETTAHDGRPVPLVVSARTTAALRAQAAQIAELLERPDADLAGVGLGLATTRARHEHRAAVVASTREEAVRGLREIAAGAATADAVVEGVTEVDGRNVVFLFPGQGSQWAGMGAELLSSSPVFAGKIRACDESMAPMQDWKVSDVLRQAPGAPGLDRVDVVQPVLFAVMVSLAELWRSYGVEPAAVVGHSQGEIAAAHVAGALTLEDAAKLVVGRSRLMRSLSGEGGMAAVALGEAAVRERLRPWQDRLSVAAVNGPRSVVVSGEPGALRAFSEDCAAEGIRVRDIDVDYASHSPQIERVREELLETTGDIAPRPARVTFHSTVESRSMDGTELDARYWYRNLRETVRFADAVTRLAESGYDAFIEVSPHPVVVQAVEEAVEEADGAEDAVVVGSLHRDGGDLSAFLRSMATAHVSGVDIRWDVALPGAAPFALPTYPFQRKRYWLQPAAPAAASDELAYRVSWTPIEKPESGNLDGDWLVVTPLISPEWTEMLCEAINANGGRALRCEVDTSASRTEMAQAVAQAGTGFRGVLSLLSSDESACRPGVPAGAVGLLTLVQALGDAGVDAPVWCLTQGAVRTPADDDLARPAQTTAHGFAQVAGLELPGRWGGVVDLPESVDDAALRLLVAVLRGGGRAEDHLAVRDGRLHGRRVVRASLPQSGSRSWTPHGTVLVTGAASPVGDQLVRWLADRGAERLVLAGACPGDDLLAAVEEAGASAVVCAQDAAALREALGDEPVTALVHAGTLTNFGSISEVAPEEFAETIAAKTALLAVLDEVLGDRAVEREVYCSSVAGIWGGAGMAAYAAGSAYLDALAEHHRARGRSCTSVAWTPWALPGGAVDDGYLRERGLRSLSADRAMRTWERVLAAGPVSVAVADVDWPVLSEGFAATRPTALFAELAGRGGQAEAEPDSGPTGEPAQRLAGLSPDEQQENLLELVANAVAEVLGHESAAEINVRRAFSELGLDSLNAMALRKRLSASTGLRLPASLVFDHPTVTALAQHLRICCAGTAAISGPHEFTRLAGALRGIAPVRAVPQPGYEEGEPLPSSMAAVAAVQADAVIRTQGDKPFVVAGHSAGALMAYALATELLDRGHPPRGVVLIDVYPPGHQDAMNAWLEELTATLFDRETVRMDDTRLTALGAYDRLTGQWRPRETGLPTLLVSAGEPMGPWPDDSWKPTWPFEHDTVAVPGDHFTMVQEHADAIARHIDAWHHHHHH

B1: M2 (module 2 of DEBS with its natural C-terminal linker) (protein)
chain: MSGDNGMTEEKLRRYLKRTVTELDSVTARLREVEHRAGIAIVGMACRLPGEVDSPERLWELITSGRDSAAEVPDDRGWVPDELMASDAAGTRAHGNFMAGAGDFDAAFFGISPREALAMDPQQRQALETTWEALESAGIPPETLRGSDTGVFVGMSHQGYATGRPRPEDGVDGYLLTGNTASVASGRIAYVLGLEGPALTVDTACSSSLVALHTACGSLRDGDCGLAVAGGVSVMAGPEVFTEFSRQGALSPDGRCKPFSDEADGFGLGEGSAFVVLQRLSDARREGRRVLGVVAGSAVNQDGASNGLSAPSGVAQQRVIRRAWARAGITGADVAVVEAHGTGTRLGDPVEASALLATYGKSRGSSGPVLLGSVKSNIGHAQAAAGVAGVIKVLLGLERGVVPPMLCRGERSGLIDWSSGEIELADGVREWSPAADGVRRAGVSAFGVSGTNAHVIIAEPPEPEPVPQPRRMLPATGVVPVVLSARTGAALRAQAGRLADHLAAHPGIAPADVSWTMARARQHFEERAAVLAADTAEAVHRLRAVADGAVVPGVVTGSASDGGSVFVFPGQGAQWEGMARELLPVPVFAESIAECDAVLSEVAGFSVSEVLEPRPDAPSLERVDVVQPVLFAVMVSLARLWRACGAVPSAVIGHSQGEIAAAVVAGALSLEDGMRVVARRSRAVRAVAGRGSMLSVRGGRSDVEKLLADDSWTGRLEVAAVNGPDAVVVAGDAQAAREFLEYCEGVGIRARAIPVDYASHTAHVEPVRDELVQALAGITPRRAEVPFFSTLTGDFLDGTELDAGYWYRNLRHPVEFHSAVQALTDQGYATFIEVSPHPVLASSVQETLDDAESDAAVLGTLERDAGDADRFLTALADAHTRGVAVDWEAVLGRAGLVDLPGYPFQGKRFWLLPDRTTPRDELDGWFYRVDWTEVPRSEPAALRGRWLVVVPEGHEEDGWTVEVRSALAEAGAEPEVTRGVGGLVGDCAGVVSLLALEGDGAVQTLVLVRELDAEGIDAPLWTVTFGAVDAGSPVARPDQAKLWGLGQVASLERGPRWTGLVDLPHMPDPELRGRLTAVLAGSEDQVAVRADAVRARRLSPAHVTATSEYAVPGGTILVTGGTAGLGAEVARWLAGRGAEHLALVSRRGPDTEGVGDLTAELTRLGARVSVHACDVSSREPVRELVHGLIEQGDVVRGVVHAAGLPQQVAINDMDEAAFDEVVAAKAGGAVHLDELCSDAELFLLFSSGAGVWGSARQGAYAAGNAFLDAFARHRRGRGLPATSVAWGLWAAGGMTGDEEAVSFLRERGVRAMPVPRALAALDRVLASGETAVVVTDVDWPAFAESYTAARPRPLLDRIVTTAPSERAGEPETESLRDRLAGLPRAERTAELVRLVRTSTATVLGHDDPKAVRATTPFKELGFDSLAAVRLRNLLNAATGLRLPSTLVFDHPNASAVAGFLDGTEVRGEAPSALAGLDALEGALPEVPATEREELVQRLERMLAALRPVAQAADASGTGANPSGDDLGEAGVDELLEALGRELDGD
Take B1: the “maximum rate constant (kcat) of tetraketide lactone 2 formation” value in data set [1] turned out to be 0.0045 ± 0.00017 s⁻¹. Besides, the “highest rate constant of tetraketide lactone 2 formation (mismatched linkers)” value in data set [2] is “in the range of 0.02-0.03 min^-1”.

The values above are taken from US20060110789.
